Assay [1] deals with T1, mouse programmed cell death protein 1 C60S (aa 25-167) Fc fusion protein, Q02242.
T1 chain: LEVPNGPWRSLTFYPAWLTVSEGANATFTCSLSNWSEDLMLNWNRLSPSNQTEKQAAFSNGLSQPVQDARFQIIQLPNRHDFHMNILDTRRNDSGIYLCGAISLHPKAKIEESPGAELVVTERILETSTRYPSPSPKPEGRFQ
Put plainly: BreviA (SPR). The conditions noted are these: chain shown with the change;, read off a plot; for Kd: parent: est. 1.2e-7 M.

Assay [2] addresses T2, human programmed cell death protein 1 C93S (aa 24-167), Q15116. The experiment in a line: SPR. The conditions noted are these: chain shown with the change; top curve (taken as 1024 nM hPD-1), read at end of association, about 570 s; antibody immobilized as ligand; parent: est. 740; read off a plot.
Assay [3] concerns the target T2, human programmed cell death protein 1 …. Put plainly: BreviA (SPR). The conditions noted are these: chain shown with the change;; parent: est. 910 pM; read off a plot.

The text below walks through data of PMC10663500.

Substitutions are numbered along the chain they refer to. Names and notes keep the numbering of the source.

T2 sequence (Q15116 24-167 C93S): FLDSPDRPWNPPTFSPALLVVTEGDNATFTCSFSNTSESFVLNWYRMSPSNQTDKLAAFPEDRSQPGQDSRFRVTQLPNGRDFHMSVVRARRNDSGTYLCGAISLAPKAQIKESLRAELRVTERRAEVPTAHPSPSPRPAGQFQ

B1: toripalimab Fab (wild-type) L:L101A (protein)
chain 1: QGQLVQSGAEVKKPGASVKVSCKASGYTFTDYEMHWVRQAPIHGLEWIGVIESETGGTAYNQKFKGRVTITADKSTSTAYMELSSLRSEDTAVYYCAREGITTVATTYYWYFDVWGQGTTVTVSS
chain 2: DVVMTQSPLSLPVTLGQPASISCRSSQSIVHSNGNTYLEWYLQKPGQSPQLLIYKVSNRFSGVPDRFSGSGSGTDFTLKISRVEAEDVGVYYCFQGSHVPATFGQGTKLEIK
The Kd is the constant that tells how readily two partners part at equilibrium. Consider B1, for which the Kd in assay [1] came out at 26 nM.

B2: toripalimab Fab (wild-type) L:V99G (protein)
chain 1: B1 chain 1
chain 2: B1 chain 2 with V99G, A101L
With B2, in assay [2], the response is 770 RU. Also, in assay [3], the Kd stood at 2 nM.

B3: toripalimab Fab (wild-type) L:V99A (protein)
chain 1: B1 chain 1
chain 2: B1 chain 2 with V99A, A101L
One may read the koff as a measure of how fast the partners let go of each other. Regarding B3, the koff in assay [1] (parent: est. 5.9e-3 s-1) turned out to be 0.00036 s⁻¹.

B4: toripalimab Fab (wild-type) L:P100H (protein)
chain 1: B1 chain 1
chain 2: B1 chain 2 with P100H, A101L
B4: the response in assay [2] was determined as 470 RU. For the same molecule, the Kd in assay [1] worked out at 1 nM.
